Laboratory results taken from US9193770.

Biological target: TLR5 of the luciferase reporter assay
Test: cell-based or functional assay

## native H7 flagellin purified from E. coli O157:H7 (ligand)
  luciferase reporter assay, TLR5 activity: 0.1 ng/mL
